Measured values published in patent US11180770B2, “HPPD variants and methods of use” (BASF Agricultural Solutions Seed US LLC, priority 2017, dated 2021).

System: HPPD polypeptides
Experiment: coupled HPPD activity assay: turnover and residual turnover in crude extracts
Type: biochemical, Pseudomonas fluorescens
Details: for Residual turnover [%]: 100 μM Cmpd. 1, signal change with inhibitor divided by signal change without inhibitor; for Turnover: absence of Cmpd. 1, kinetic changes in absorbance (OD) at 320 nm, 30 min; for Turnover / Residual turnover: high substrate concentration; for Residual turnover: presence of 100 μM Cmpd. 1, changes in absorbance (OD) at 320 nm
Method: The activity of HPPD polypeptides was determined in absence or presence of HPPD inhibitors using the coupled HPPD activity assay (FIG. 1).
For the determination of the residual activity, the apparent kinetic constant (kapp) of the determined substrate conversion was measured as kinetic changes in absorbance (OD) at 320 nm in a coupled assay, in that homogentisate (HGA) formed by HPPD from HPP is directly converted into the well absorbing molecule maleylacetoacetate (MAA) by a second enzyme homogentisate dioxygenase (HGD), applied in excess uniformly in all assays (see FIG. 1). The measurements were performed in 384 micro titer plates (Greiner Bio-One GmbH, Frickenhausen, Germany) by plate readers (Tecan infinite M1000 or M1000PRO, Tecan, Männedorf, Switzerland). The kcat/kM ratio of an enzymatic activity is proportional to the apparent kinetic constant kapp and is proportional to kcat/kM*[E] ([E]=enzyme concentration). […] As both kapp measurements in the presence and absence of inhibitor were performed by use of the identical enzyme sample, crude or purified, and thereby at the same enzyme concentration, the enzyme concentration eliminates from the calculation of residual activity and the ratio of both kapp directly indicates the change of kM due to the inhibition.
The assay solution used for determination of residual activities in raw HPPD polypeptide samples was composed by 200 mM sodium phosphate (Merck, Darmstadt, Germany, pH 7.0), 5 mM MgCl2 (Merck, Darmstadt, Germany), 20 mM ascorbate (Sigma-Aldrich, St. Louis, USA), 1 mM DTT (Sigma-Aldrich, St. Louis, USA), 0.1% Pluronic F-68 (Sigma-Aldrich, St. Louis, USA), 40 μM FeSO4 (Sigma-Aldrich, St. Louis, USA), about 8 mg/ml purified HGD and 500 μM HPP from a 1 M stock solution in DMSO (Sigma-Aldrich, St. Louis, USA) and equilibrated for 20 min on ice. For every HPPD polypeptide sample two assays were performed in quadruplets, whereby 5 μl of HPPD polypeptide sample were mixed firstly with 5 μl buffer (1×BugBuster®; (Merck, Darmstadt, Germany); in 140 mM Tris, pH 7.8, with 1:25000 diluted BNase®; Qiagen, Hilden, Germany)) or 5 μl inhibitor diluted in the same buffer from a 0.1 M stock solution in DMSO (200 μM resulting in 100 μM in the HPPD polypeptide/inhibitor sample) in the reference and inhibition assay, respectively, and subsequently with 10 μl assay solution. The change in absorbance at 320 nm was followed in 1 min intervals for 30 min. The kapp values were calculated as signal slope over time in the early phase of the kinetic reaction, usually for the first 5-10 minutes of the measurements. Additionally and according to the calculated residual activity, the total conversion, i.e. the absolute change in signal, in the 30 min timeframe was monitored as measure of turnover, and a residual turnover was calculated by dividing the change in signal in the presence of inhibitor by the change in signal in the reference sample without inhibitor.
Residual turnover were determined according to Example 3 by measuring total change in signal in the presence and absence of Cmpd. 1 (2-chloro-3-(methylsulfanyl)-N-(1-methyl-1H-tetrazol-5-yl)-4-(trifluoromethyl)benzamide). For each mutant HPPD polypeptide, the total change in signal without HPPD inhibitor herbicides served for normalization of the total change in signal in the presence of the herbicide.

Molecule	Residual turnover [%]	Turnover	Residual turnover
49 (protein, mutant HPPD polypeptide) MADLYENPMGLMGFEFIEFASPTPGTLEPIFEIMGFTKVATHRSKNVHLYRQGEINLILNNEPNSIASYFAAEHGPSVCGMAFRVKDSQKAYNRALELGAQPIHIDTGPMELNLPAIKGIGGAPLYLIDRFGEGSSIYDIDFVYLEGVERNPVGAGLKVIDHLTHNVYRGRMVYWANFYEKLFNFREARYFDIKGEYTGLTSKAMSAPDGMIRIPLNEESSKGAGQIEEFLMQFNGEGIQHVAFLTDDLVKTWDALKKIGMRFMTAPPDNYYEMLEGRLPDHGEPVDQLQARGILLDGSSVEGDKRLLLQIFSETLMGPVFFEFIQRKGDDGFGPHSFKVLFEQMERDQVRRGVLTAD	33%	0.316	0.103
51 (protein, mutant HPPD polypeptide) MADLYENPMGLMGFEFIEFASPTPGTLEPIFEIMGFTKVATHRSKNVHLYRQGEINLILNNEPNSIASYFAAEHGPSVCGMAFRVKDSQKAYNRALELGAQPIHIDTGPMELNLPAIKGIGGAPLYLIDRFGEGSSIYDIDFVYLEGVERNPVGAGLKVIDHLTHNVYRGRMVYWANFYEKLFNFREARYFDIKGEYTGLTSKAMSAPDGMIRIPLNEESSKGAGQIEEFLMQFNGEGIQHVAFLTDDLVKTWDALKKIGMRFMTAPADNYYEMLEGRLPDHGEPVDQLQARGILLDGSSVEGDKRLLLQIFSETLMGPVFFEFIQRKGDDGFGPDSFKVLFESKERDQVRRGVLTAD	56%	0.131	0.074
52 (protein, mutant HPPD polypeptide) MADLYENPMGLMGFEFIEFASPTPGTLEPIFEIMGFTKVATHRSKNVHLYRQGEINLILNNEPNSIASYFAAEHGPSVCGMAFRVKDSQKAYNRALELGAQPIHIDTGPMELNLPAIKGIGGAPLYLIDRFGEGSSIYDIDFVYLEGVERNPVGAGLKVIDHLTHNVYRGRMVYWANFYEKLFNFREARYFDIKGEYTGLTSKAMSAPDGMIRIPLNEESSKGAGQIEEFLMQFNGEGIQHVAFLTDDLVKTWDALKKIGMRFMTAPADNYYEMLEGRLPDHGEPVDQLQARGILLDGSSVEGDKRLLLQIFSETLMGPVFFEFIQRKGDDGFGPDSFKVLFEQIERDQVRRGVLTAD	47%	0.189	0.088
53 (protein, mutant HPPD polypeptide) MADLYENPMGLMGFEFIEFASPTPGTLEPIFEIMGFTKVATHRSKNVHLYRQGEINLILNNEPNSIASYFAAEHGPSVCGMAFRVKDSQKAYNRALELGAQPIHIDTGPMELNLPAIKGIGGAPLYLIDRFGEGSSIYDIDFVYLEGVERNPVGAGLKVIDHLTHNVYRGRMVYWANFYEKLFNFREARYFDIKGEYTGLTSKAMSAPDGMIRIPLNEESSKGAGQIEEFLMQFNGEGIQHVAFLTDDLVKTWDALKKIGMRFMTAPADNYYEMLEGRLPDHGEPVDQLQARGILLDGSSVEGDKRLLLQIFSETLMGPVFFEFIQRKGDDGFGPDSFKVLFEQVERDQVRRGVLTAD	54%	0.199	0.107
50 (protein, mutant HPPD polypeptide) MADLYENPMGLMGFEFIEFASPTPGTLEPIFEIMGFTKVATHRSKNVHLYRQGEINLILNNEPNSIASYFAAEHGPSVCGMAFRVKDSQKAYNRALELGAQPIHIDTGPMELNLPAIKGIGGAPLYLIDRFGEGSSIYDIDFVYLEGVERNPVGAGLKVIDHLTHNVYRGRMVYWANFYEKLFNFREARYFDIKGEYTGLTSKAMSAPDGMIRIPLNEESSKGAGQIEEFLMQFNGEGIQHVAFLTDDLVKTWDALKKIGMRFMTAPSDNYYEMLEGRLPDHGEPVDQLQARGILLDGSSVEGDKRLLLQIFSETLMGPVFFEFIQRKGDDGFGPHSFKVLFEQMERDQVRRGVLTAD	44%	0.315	0.138
